How the values were obtained:
Experiment in all cases: pull-down
[1] = target: T1, His6-GIGYF1 GYF domain (residues 470-538) (human, UniProt O75420 470-538)
T1 sequence (looked up): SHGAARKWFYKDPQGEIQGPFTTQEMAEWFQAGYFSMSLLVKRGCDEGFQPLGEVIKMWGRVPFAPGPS

[2] = target: T2, His6-GIGYF1 GYF domain F533E (human, UniProt O75420 470-538, F533E)
T2 sequence (looked up): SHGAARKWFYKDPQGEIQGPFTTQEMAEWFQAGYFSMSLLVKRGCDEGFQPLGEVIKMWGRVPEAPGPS

[3] = target: T3, His6-GIGYF2 GYF domain (residues 529-597) (human, UniProt Q6Y7W6 529-597)
T3 sequence (looked up): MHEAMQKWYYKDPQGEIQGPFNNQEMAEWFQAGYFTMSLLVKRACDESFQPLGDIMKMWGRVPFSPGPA

[4] = target: T4, His6-GIGYF2 GYF domain F592E (human, UniProt Q6Y7W6 529-597, F592E)
T4 sequence (looked up): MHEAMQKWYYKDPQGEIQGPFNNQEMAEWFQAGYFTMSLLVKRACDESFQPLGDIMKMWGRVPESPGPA

Measured: binding result

B1: GST-tagged fragment of the first tetra-proline region of TTP (residues 68-78) (peptide, UniProt P26651 68-78, looked up)
chain: GWVPPPPGFAP
binds: all assays above
